Assay results reported in the DeepSol protein solubility set.

assay: soluble on expression in E. coli; label from the status in PepcDB or PDB records

Row | Sequence | soluble on expression in E. coli
1 | MGSDKIHHHHHHAERKNALKVDNGHYYKWKEGNIFYTKTGTGKPILLIHDTDSGASGEEWAKVAKKLAKNNTIYTIDLLGCGRSDKPSIQYTSYMYVQIITAFVDDVIGKPVNVAATNLSTAPVIMANALSKDLFNKIILINPVSLQQLKCIPDKSTKFKQNIINLPIVGTFIYNKLMSPIKVDLLFRNKFISRSQLISDNMKDAYYESAHKGQSRGKYLYSSILSNYINTNIAPALKNLDKDVSIIASTGIKNNMDVINNYHKLNSKCDIIHIANAKLYPQLELPEKTASIIKKIVTN | not soluble
2 | MGSDKIHHHHHHAETVVVRLGLFTESISLTELQNAAKTGELPRSLQSYAKGLSEQQRRFLLGALGMNIPMNVVTINKLLNTQIGTTILNDFATALARKDNAGVQALRGGLVLGSTAPGGLSILSFIAAYPSKRLEIDLPKAFIVAGNLNTAFWRTQQFMVAIAPRLDSTTSQIAFPFDPSQPGTAQVKILNLSLNDQKRQRKIPVDIYWSNDATANKPLIVFSHGLGSVRTDLRYLAEHLASHGYVVAALEHPGSNEDNINSALQGKTRPVKPQEFLNRPQDVSFVLDELEKLNQTTNHPLQGKLATMNAMVVGYSFGGSTALALAGGELQLERLKQRCKKNLAILSLGEAMQCIAQELPENTYQLRDTRIKQAIALNPTTSLIFGETGLTKVQVPTLVLAGSADKTTPALTEQIVGFDKIPSPKWLVGIVGGTHLSVKDPSKTMDQIGQPNTPISGGEVVGEQAADIRKYLKAITLAFAAQMTPEAKNYAIFLTSDYAQFASTKAFPFRLITQIPSNAMPVVKEFGDK | not soluble
3 | MGSDKIHHHHHHAEYIHVIPADASAVASINLNSLADKAGLNDKQNEGMKQKMMEALKSGMNAAAFQQLEKIMKNPSQSGIDVKAPVFVFTSKTFISPTIVAKVSNIEDLRASLDLMAKEGICQPIAEEEGYSFTSLQKNNLLVFNENAAVLTEAYGTSQMDVAKQTISTLLKQTEENSIASNGSFRKMQDQKGDINFFASMDAVPKMYTQQISLGLSSQIDLSEVKAVGNLNFEKGKIALQIETYSDNAETDALLKKQAQAVKKLNTTFLQNFPESTLAFLNIGVNGAAFYDLLFNNEEFRRNVSLAKADEVKSLFASFDGDISIGLINVTLNSVPTFAAYADAKNGNALKALYDNKKQLKLGKNEDIIQLGENEYVYKSRATNVFFGIRNKQMYATNDELLYKSISKPVEKSIKDAGYVSDMKGKNVFFVINMDAILDLPVVKMMAGFGGEEYQTYYKLASKISYIEAFSDSEGKTETAILLKNKDDNALKQIVDFAKQFAGM | not soluble
4 | MGSDKIHHHHHHAGCAMIPPEPVVTGPLTAPPPPPPQPSARPNGSIYQPSAYGNYPLFEDRRPRNVGDIVTIVLEEKTNAAKGVATNTSRDGSATLGVAAAPRFMDGIINDKLDTDISGGNTANGTGKSSANNTFTGTITTTVIGVLPNGNLQIAGEKQIAINRGSEYVRFSGVVDPRSITGSNTVSSTRVADARIEYRSKGVMDEVQTMGWLQRFFLIASPF | not soluble
5 | MGSDKIHHHHHHAPFVFDQQSYRQDVQTLASDEFEGRGPLSQGETLTVEYLENAFKKMGLAPGFGDSYRQSVPMAKITADQNMQLKVGELVFNNGSDFTARTEQIQPSITLDNSEIVFVGYGINAPEYGWNDYAGIDVKGKTVILMVNDPGFATQDPEVFKGNAMTYYGRWTYKYEEAARQGAKAVFIIHETAPAAYGWNVVQNSNTNTKYTLVDKEKNRSHIGVMGWVQHEVAQKIFTAAGLDYDKLKLTAAKPGFKSRSLDLKANLEVKNDIELATSYNVAGLLPGKTRPDEWLVMHAHWDHLGKTVHEDQTRIYNGAVDNASGVAGVLQLARHFKDLSATQPPARSMLFSAFTAEETGLIGAQYFAENSPVPTKQLVAFLNIDGMNVGKGVDYILRYGEGVSELENYLDKAAKAQGRWVKADPRPQNGLMFRSDHFALAKQGVPGLMFMSLGDTDPDYIAHKYHQGADDYDPSWTLGGVEQDLALISDILEKLANNNDWPKWLEASDFKTRRAQDGR | not soluble
6 | MGSDKIHHHHHHAPKKKEEPSPEASSSKRPFRVCLNVSTIAGYKLPVQKQIDLCAEAGFEGIELWTRDVDAFVKQGGTYETLRRQLEGSGLLLENMIGFASWFADDLSKRKEGLNQMRHDMEMVAGLGGKFIAAPAQGVTQLDRTRLPEYSERYRAILDLGDEMGVTPILELWGAGILNQLSDTMAIAIASGHSRASVLLDFYHLYRGGNSFDSLRLINGKILPVFHINDYPELPPRTELRDSDRVFPGDGICPFNKVLPLLYDSGFRGGLSVELFNKGYWETMDVKEVLKKSFEKTTQVINSSMG | not soluble
7 | MGSDKIHHHHHHAQKGVDNGTQFGSGEDSVRCITNISLFVPYAKAGNFKDAYDFWKIVYDECPAATKDIYLYGVKIMGWKIAQEKDPAKKNALIDDLMGVYDKRVKYFGNDRRYGKDWIVARKVQDYLAQTGDNADYNQAYTWLKEIVDEKGADTEALGLSLFSFSSMKKMLNDPNFKEQYIQDYLKVSAGLDAQLKAAQAANNQKEVNALTAYKSGVDNAFANSGAADCETLQNLYAAKIEENKDNLPYLKETISLLRRTGCQEIEAYFLASDYAYRQEPSAEAAVGLGKKAVKIKDYDTAIKYFDEAANLETDATSKADDYYMIALLLFEQNAYSKARQYCQKALEVNPNYGNAYLLIGKMYAATSKSVFPNDGVLARAAYNAAIDKFEKAKQVDPSVAEEANTLISSYRAHLPSTEEIFMHPDLEKGKPFTVGGWIGERTTIR | not soluble
8 | MGSDKIHHHHHHASNPVLRISDGWVADTIAPALIHYRFAGYDSISQAHQNVDVLEVDLTSPSYDIQLVYEEHGDSLSSVAERNNAAAAINGTYEAEASFIKIGGRLLAQNRLDSTHIRYWKHEGAFLFDDDNKNIDIRFASDSTFLSHPAANILSGAPMLIDNNDPVGLNFTGNVEGMDLNKLDYEDFRRHQGVRHPRTAVALTEHKKLLLITVDGRSTQAAGMSANELTRFLLTYFCPQSALNLDGGGSTTMWIASSEQRVGGVVNHPTDNKKFDHAGQRRVTSFIVIKSSENHE | not soluble
9 | MGSDKIHHHHHHCGGGTERKGLEALVAEYKKLNPDVDFEIIDISYSSYMQKISLAVMSGDVPDLMTITYPFAPELRKYLIDLDPYIEKYLGITPKEYEDAFYNVVKPYIKDENGKIKYVPLHFTVQGLWVNVDYFEKAGIPFPPLGGREEPWTWEEFVEVLRKVKEANNLPYAMSMQYSAERIANYLAIRGAKVLDENLNLVLDKDPKAIKALEDFVNLFKENLCVPAEWVSGQSADNDFYGGVTAVYWAGSWETLDALSVEGKRFLPAYLPKDEYCFGVEGGRFFGAFKTGDKKKEEEAAKFALWAGWKGKGYDIYLKTTLHLSAYKDHKVDYGVPIMESVQKVFGYLAANAPEWIVTVRANPVWSRLYDPLRKQISLVIAGQQDLQTALKNIRAEYERIVEELGIK | not soluble
10 | MGSDKIHHHHHHCSTDFLDRNPLDKPSNEAFWRTEKDAMAAATGCYNGWFSMDEVIYADCASDNAYNPFTWEGWAVQAAGTATPTDPGYSYMGYGNMVRYNNFLENIHRPEMNEDLRKRLIAEVRFLRAWDYFQKVAHYGDVPLVTSVLEIKNANLPRTEKAKVVEFILKELKEIAPQLPESYSGSDVGRITRGAALTLKARLELFEHQYDDCMATCSEVMGLGYELFLDYKGLFKIANENNSEVILDVQYVESLYGNWVLGVLPPASVGGWCSINPTQSLVDAFECEDGKTIEESEVYDPKEPYLHRDPRLAVTVLAPGNLYEGKRYDPIDVKDPNGDYYAPYGRSKTGYLVRKYVDDLSDYADMWDCGMNAIVMRYAEVLLMYAECKIELNQIDNSVYDILDDIRTRAKMPVVDRTRYTGQEKLRELLRRERRVELAMEGLRWFDICRWKIGEQVLNGKVYGCLLGTVDPVTGALSLTNERIFVENRKFDPAKHYLWPIPQTVIDATPAIVQNPHY | not soluble
11 | MGSDKIHHHHHHDSFKTKSGKELTITFIKHGSLMLTYDNHSIQVDPVSEYADYTTFPKADIILITHEHGDHLDPKAIQAVEKSDTEIIANENSQKKLGKGKVLKNGDTDTSISYMKIEAVPAYNTTPGRDKYHPRHRDNGYILTFDGLRVYIAGDTEDIPEMKDLKDIDIAFLPVNQPYTMTVSQAAKAARMFSPKILYPYHYGDTKIGELKDALKDSGIDVRIRELQ | not soluble
